Target: T1, hen egg white lysozyme (hen, UniProt P00698 19-147)
T1 construct: also called HEL; hen-egg lysozyme
Test: affinity measurements by microfluidic screening

T1 sequence (P00698 19-147 limits assumed): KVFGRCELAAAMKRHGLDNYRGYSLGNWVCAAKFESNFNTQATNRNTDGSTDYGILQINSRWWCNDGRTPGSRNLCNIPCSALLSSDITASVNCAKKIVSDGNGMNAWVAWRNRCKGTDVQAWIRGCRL

B1: Mm20 mouse anti-hen egg lysozyme antibody (antibody, V domains shown)
VH: QVQLQQSGPELMKPGASVKISCKATGYTFRNYWIEWIKQRPGHGLEWIGEILPESGSINYNEKFKGKATFTADTSSNTAYLQLRSLTSEDSAVYYCFYDNYVFDYWGQGTTL
VL: QIVLIQSPTIMSASPGEKVTMTCSANSSFSYMHWYQQKSGTSPKRWIYDTSKLASGVPARFSGSGSGTSYSLTISSMEAEDAATYYCQQWSRNPTFGAGTKL
Does B1 bind?
Result: binds

Source: US20160252495A1 (UNIVERSITY OF BRITISH COLUMBIA, published 2016)
